Tests used:
[1] = molecular target: Full-length mouse His-PERIOD2-flag (mouse, UniProt O54943 1-1257); test: pull-down
[2] = molecular target: TAMRA-BMAL1 mTAD Δswitch probe (594-F619Y) (mouse); test: fluorescence polarisation
[3] = molecular target: TAMRA-BMAL1 mTAD WT probe (mouse); test: fluorescence polarisation
[4] = molecular target: BMAL1 transactivation domain (TAD), residues 579-626 (mouse); test: ITC

Chain of Full-length mouse His-PERIOD2-flag (O54943 whole entry): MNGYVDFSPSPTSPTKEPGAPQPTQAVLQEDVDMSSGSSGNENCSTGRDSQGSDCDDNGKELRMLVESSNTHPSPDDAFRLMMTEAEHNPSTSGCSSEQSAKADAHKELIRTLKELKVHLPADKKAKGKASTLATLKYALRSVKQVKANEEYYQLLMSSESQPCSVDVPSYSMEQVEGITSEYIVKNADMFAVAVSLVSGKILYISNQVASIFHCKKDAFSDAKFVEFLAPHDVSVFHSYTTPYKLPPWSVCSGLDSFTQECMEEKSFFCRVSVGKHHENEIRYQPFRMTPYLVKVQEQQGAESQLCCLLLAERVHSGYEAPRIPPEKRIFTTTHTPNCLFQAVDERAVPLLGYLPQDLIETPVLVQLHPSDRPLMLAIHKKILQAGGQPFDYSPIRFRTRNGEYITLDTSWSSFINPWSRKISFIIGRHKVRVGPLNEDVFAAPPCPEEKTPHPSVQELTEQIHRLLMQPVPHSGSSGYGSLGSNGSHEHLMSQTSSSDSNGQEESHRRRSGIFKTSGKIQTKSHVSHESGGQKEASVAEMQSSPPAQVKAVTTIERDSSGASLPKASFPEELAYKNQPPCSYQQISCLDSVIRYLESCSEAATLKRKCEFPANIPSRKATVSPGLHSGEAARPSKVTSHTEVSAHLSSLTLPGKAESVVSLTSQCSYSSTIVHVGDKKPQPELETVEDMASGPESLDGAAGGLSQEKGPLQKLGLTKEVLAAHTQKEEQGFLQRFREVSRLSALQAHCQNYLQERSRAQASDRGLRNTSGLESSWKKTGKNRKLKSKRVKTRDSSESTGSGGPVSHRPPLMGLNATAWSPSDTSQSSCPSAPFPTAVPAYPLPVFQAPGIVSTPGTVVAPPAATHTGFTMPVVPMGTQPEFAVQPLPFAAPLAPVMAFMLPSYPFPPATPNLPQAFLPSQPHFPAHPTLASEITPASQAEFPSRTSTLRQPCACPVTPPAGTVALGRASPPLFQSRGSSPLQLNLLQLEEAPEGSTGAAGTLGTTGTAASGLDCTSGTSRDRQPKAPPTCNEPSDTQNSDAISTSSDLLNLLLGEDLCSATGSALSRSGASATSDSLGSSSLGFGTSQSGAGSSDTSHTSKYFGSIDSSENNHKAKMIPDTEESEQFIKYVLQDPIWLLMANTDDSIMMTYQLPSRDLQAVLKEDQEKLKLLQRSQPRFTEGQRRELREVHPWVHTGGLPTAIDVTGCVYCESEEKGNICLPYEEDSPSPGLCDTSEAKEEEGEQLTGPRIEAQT

B1: CK1δ kinase domain (residues 1-294) (enzyme, human, UniProt P48730 1-294, looked up)
chain: MELRVGNRYRLGRKIGSGSFGDIYLGTDIAAGEEVAIKLECVKTKHPQLHIESKIYKMMQGGVGIPTIRWCGAEGDYNVMVMELLGPSLEDLFNFCSRKFSLKTVLLLADQMISRIEYIHSKNFIHRDVKPDNFLMGLGKKGNLVYIIDFGLAKKYRDARTHQHIPYRENKNLTGTARYASINTHLGIEQSRRDDLESLGYVLMYFNLGSLPWQGLKAATKRQKYERISEKKMSTPIEVLCKGYPSEFATYLNFCRSLRFDDKPDYSYLRQLFRNLFHRQGFSYDYVFDWNMLK
binding result [1]: binds

B2: CHRONO minimal repressive domain (MRD), tag form not stated (domain or fragment)
chain: ELETSLNTQGCTTEGDLLFAQKCKELQGFIPPLTDLLNGLKMGRFERGLSSFQQSVAMDRIQRIVGVLQKPQMGERYLGTLLQVEGMLKTWFPQIAAQKSSLGGGKHQLTKHFPSHHSDSAASSPASPMEKMDQTQLGHLALKPK
Kd [2]: 1540 nM
IC50 [3]: 375 nM
Kd [3]: 386 nM

B3: His-CHRONO minimal repressive domain (MRD) (domain or fragment)
chain: ELETSLNTQGCTTEGDLLFAQKCKELQGFIPPLTDLLNGLKMGRFERGLSSFQQSVAMDRIQRIVGVLQKPQMGERYLGTLLQVEGMLKTWFPQIAAQKSSLGGGKHQLTKHFPSHHSDSAASSPASPMEKMDQTQLGHLALKPK
Kd [4]: 369 nM
stoichiometry N [4]: 1
